Results on 1 protein are retold here after publication PMC7337524, “Mammalian Nudix proteins cleave nucleotide metabolite caps on RNAs” (Nucleic Acids Research, 2020).

This data set deals with the molecule itself. In words: crystal structure; crystals of free human Nudt16 (2.3 Å, with 100 mM MES pH 5.5) and of Nudt16 incubated with 5 mM FAD (2.7 Å); sitting drop at 20°C, 0.2 M ammonium chloride, 20% PEG 3350.

B1: human Nudt16 (residues 1-184) (enzyme, UniProt Q96DE0 1-184, looked up)
chain: MAGARRLELGEALALGSGWRHACHALLYAPDPGMLFGRIPLRYAILMQMRFDGRLGFPGGFVDTQDRSLEDGLNRELREELGEAAAAFRVERTDYRSSHVGSGPRVVAHFYAKRLTLEELLAVEAGATRAKDHGLEVLGLVRVPLYTLRDGVGGLPTFLENSFIGSAREQLLEALQDLGLLQSG
notes: Nudt16, human, residues 1-184, cloned into a modified pET28a vector; Seen as a dimer in both crystal forms, free and with FAD; PDB 3COU is the cited search model for molecular replacement; also called free human Nudt16; source: E. coli BL21(DE3), purified (Ni-NTA, UlpI cleavage, heparin column, Sephacryl S-200); not shown: His6, N-terminal, cleaved; yeast SMT3 SUMO, N-terminal, cleaved
B1: the binding result is “binds”.
